Source: patent publication EP1514558A1 (Max-Planck-Gesellschaft zur Förderung der Wissenschaften …, dated 2005)

Biological target: HA-tagged MARK2, baculovirus-expressed in Sf9 cells (Rattus norvegicus (Rat), UniProt O08679 1-722)
Assay: cell-based or functional assay

HA-tagged MARK2, baculovirus-expressed in Sf9 cells, sequence (O08679 other isoform, or with tags, fused parts or gaps limits assumed, form in doubt): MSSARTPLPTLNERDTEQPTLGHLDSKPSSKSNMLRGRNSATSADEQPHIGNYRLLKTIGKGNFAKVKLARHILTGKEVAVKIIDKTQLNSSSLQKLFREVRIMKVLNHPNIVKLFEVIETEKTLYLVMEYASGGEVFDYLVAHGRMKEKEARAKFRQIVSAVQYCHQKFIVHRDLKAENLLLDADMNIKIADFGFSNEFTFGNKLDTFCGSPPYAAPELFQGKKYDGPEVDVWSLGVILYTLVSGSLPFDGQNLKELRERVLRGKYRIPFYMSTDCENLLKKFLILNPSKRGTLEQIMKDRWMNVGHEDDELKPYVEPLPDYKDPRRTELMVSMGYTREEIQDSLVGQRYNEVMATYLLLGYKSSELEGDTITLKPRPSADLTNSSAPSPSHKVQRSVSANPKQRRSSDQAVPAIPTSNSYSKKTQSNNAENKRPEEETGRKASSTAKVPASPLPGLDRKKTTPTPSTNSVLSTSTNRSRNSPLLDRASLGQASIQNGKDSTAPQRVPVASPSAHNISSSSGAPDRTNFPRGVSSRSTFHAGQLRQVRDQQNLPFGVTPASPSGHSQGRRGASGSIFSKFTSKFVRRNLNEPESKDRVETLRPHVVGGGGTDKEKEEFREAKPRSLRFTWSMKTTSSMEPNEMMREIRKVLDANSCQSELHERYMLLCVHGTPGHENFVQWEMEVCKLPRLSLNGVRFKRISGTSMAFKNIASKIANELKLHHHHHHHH

B1: myc-tagged MARKK, baculovirus-expressed in Sf9 cells (enzyme, not shown: small tags and cut ends)
chain: MGHHHHHHHHHHSSGHIEGRHMPSTNRAGSLKDPEIAELFFKEDPEKLFTDLREIGHGSFGAVYFARDVRTNEVVAIKKMSYSGKQSTEKWQDIIKEVKFLQRIKHPNSIEYKGCYLREHTAWLVMEYCLGSASDLLEVHKKPLQEVEIAAITHGALQGLAYLHSHTMIHRDIKAGNILLTEPGQVKLADFGSASMASPANSFVGTPYWMAPEVILAMDEGQYDGKVDVWSLGITCIELAERKPPLFNMNAMSALYHIAQNESPTLQSNEWSDYFRNFVDSCLQKIPQDRPTSEELLKHMFVLRERPETVLIDLIQRTKDAVRELDNLQYRKMKKLLFQEAHNGPAVEAQEEEEEQDHGGGRTGTVNSVGSNQSIPSMSISASSQSSSVNSLPDASDDKSELDMMEGDHTVMSNSSVIHLKPEEENYQEEGDPRTRASDPQSPPQVSRHKSHYRNREHFATIRTASLVTRQMQEHEQDSELREQMSGYKRMRRQHQKQLMTLENKLKAEMDEHRLRLDKDLETQRNNFAAEMEKLIKKHQASMEKEAKVMANEEKKFQQHIQAQQKKELNSFLESQKREYKLRKEQLKEELNENQSTPKKEKQEWLSKQKENIQHFQAEEEANLLRRQRQYLELECRRFKRRMLLGRHNLEQDLVREELNKRQTQKDLEHAMLLRQHESMQELEFRHLNTIQKMRCELIRLQHQTELTNQLEYNKRRERELRRKHVMEVRQQPKSLKSKELQIKKQFQDTCKIQTRQYKALRNHLLETTPKSEHKAVLKRLKEEQTRKLAILAEQYDHSINEMLSTQALRLDEAQEAECQVLKMQLQQELELLNAYQSKIKMQAEAQHDRELRELEQRVSLRRALLEQKIEEEMLALQNERTERIRSLLERQAREIEAFDSESMRLGFSNMVLSNLSPEAFSHSYPGASSWSHNPTGGSGPHWGHPMGGTPQAWGHPMQGGPQPWGHPSGPMQGVPRGSSIGVRNSPQALRRTASGGRTEQGMSRSTSVTSQISNGSHMSYT
- activity of immunoprecipitated MARK2 (phosphorylation of TR1) on co-expression in Sf9 cells: ~3 fold
